Test results taken from the supplement of paper PMC12042874.
± gives the uncertainty stated by the source.

Assay: amyloid nucleation score (Sup35N fusion, yeast selection) (log enrichment); library NNK2; higher = more nucleation; inactive = no reads after selection
In short: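 Growth for 7 days at 30°C on medium lacking adenine and uracil followed a 24-hour induction with 100 μM copper sulfate of psi-negative yeast expressing peptides of 20 random codons fused to Sup35N. Input and output plasmid inserts were sequenced with Illumina, and sequences with under 100 input reads were excluded. Nucleation score is the DiMSum log enrichment of output over input reads, centred on the mode score of non-aggregating sequences.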

Substance: SLCLLIALSRWSIAS
- amyloid nucleation score: 1.14 ± 0.3

Substance: KGLLCTHESMGVYRDSWPCY
- amyloid nucleation score: -0.067 ± 0.49

Substance: WCMLRYCVESGLSVSFMHFS
- amyloid nucleation score: -0.626 ± 0.63

Substance: FRGGSCYIVVWA
- amyloid nucleation score: 6.573 ± 0.04

Substance: KRLVEAVKFWWQVRNGLKVR
- amyloid nucleation score: 0.518 ± 0.29

Substance: AVDAVGSLMKRALRLRSMFG
- amyloid nucleation score: 1.12 ± 0.44

Substance: NTSMSPSQYCC
- amyloid nucleation score: 2.86 ± 0.16

Substance: EEYCSFKLVHMGRGPAGHSI
- amyloid nucleation score: 2.58 ± 0.11

Substance: SKKTIVFGGTIRTTALPGPG
- amyloid nucleation score: -0.592 ± 0.76

Substance: FCTHPSFGTVMGMRAETGLD
- amyloid nucleation score: 0.516 ± 0.81

Substance: SIRIKRLSNLQSRNPVRPRV
- amyloid nucleation score: -0.578 ± 1.1

Substance: IIKANVSVRYVFDKFHKMVH
- amyloid nucleation score: 2.83 ± 0.094

Substance: KWLTAHAAYLWSETEVRMVV
- amyloid nucleation score: 0.673 ± 0.27

Substance: MPEIREREMYGLVESLEYKK
- amyloid nucleation score: -0.147 ± 0.41

Substance: RFGNCGVTMTRSAGRFRAIS
- amyloid nucleation score: -0.169 ± 0.29

Substance: LTGCGDFSLLSIYFSRMHRG
- amyloid nucleation score: 5.2 ± 0.078

Substance: SVYVCVKWESVSVLVLY
- amyloid nucleation score: 1.86 ± 0.12

Substance: NNSYVFFFI
- amyloid nucleation score: 7.013 ± 0.064

Substance: FKASWVVRASNKDTHIHRGG
- amyloid nucleation score: -0.144 ± 0.49

Substance: YGGDVSP
- amyloid nucleation score: 0.1 ± 0.4

Substance: MDWIPLMPTYGIWLPC
- amyloid nucleation score: 0.045 ± 0.41

Substance: HMLAPCFNM
- amyloid nucleation score: -1.58 ± 0.78

Substance: FSRYNVCYFRVAKGNARLPF
- amyloid nucleation score: -0.541 ± 0.76

Substance: NHHTEDMVK
- amyloid nucleation score: 0.367 ± 0.32

Substance: SGGLSR
- amyloid nucleation score: -0.728 ± 0.79

Substance: MFVGGGSSSTWLGNVWYVGS
- amyloid nucleation score: -0.337 ± 1.1

Substance: IYFGMDASKIGLLYVVGYSG
- amyloid nucleation score: 0.067 ± 0.63

Substance: DCYSQPMLRVLDSVAHSVWF
- amyloid nucleation score: 0.369 ± 0.43

Substance: GRCPVSRVHGIQRSGDGSVI
- amyloid nucleation score: -0.383 ± 1.1

Substance: LNMMIINISFRSKSVDGSRM
- amyloid nucleation score: 6.945 ± 0.056

Substance: PFYLVRRGWNIWNSNGVECH
- amyloid nucleation score: -0.161 ± 1.1

Substance: VVMMSGYILTSTSLVYYHFY
- amyloid nucleation score: 0.005 ± 0.54

Substance: KVYINHGFGNFEVCSRWVFE
- amyloid nucleation score: -0.055 ± 1.1

Substance: TTAWSVEINGTMRNDDMSAS
- amyloid nucleation score: 2.2 ± 0.091

Substance: FSGHILGRPFDGRSLVCMS
- amyloid nucleation score: inactive

Substance: IFTYCVWSFSWFW
- amyloid nucleation score: 7.302 ± 0.053

Substance: IDSFDPGFRRHLDRSWIRRH
- amyloid nucleation score: 0.105 ± 1.1

Substance: SLLLYYMGGK
- amyloid nucleation score: 5.114 ± 0.042

Substance: TNKKVVRYPSPLPERSYGMR
- amyloid nucleation score: 0.012 ± 0.74

Substance: IRVSLFYPSG
- amyloid nucleation score: 3.89 ± 0.051

Substance: LMHFSFSVAGRAGNELLFIG
- amyloid nucleation score: 2.46 ± 0.22

Substance: PMCPMSIVLCSATLLLELFV
- amyloid nucleation score: 5.414 ± 0.037

Substance: VDYTVFGGPTQRIGER
- amyloid nucleation score: 0.073 ± 0.3

Substance: RLIYCVVGRCCNCSFYFTRM
- amyloid nucleation score: 2.75 ± 0.09

Substance: WHMSWLK
- amyloid nucleation score: 0.114 ± 0.63

Substance: MFVWVQSRIGKGFGMGFRRW
- amyloid nucleation score: -0.307 ± 0.76

Substance: MWIYNY
- amyloid nucleation score: 2.78 ± 0.087

Substance: AWDDL
- amyloid nucleation score: 0.154 ± 0.45

Substance: EVANGKFCNFGSLYDLMWWE
- amyloid nucleation score: -0.348 ± 0.76

Substance: LTGFLNGAGNN
- amyloid nucleation score: 1.75 ± 0.12

Substance: HATSMCNWAVFIECFFFGKL
- amyloid nucleation score: 5.39 ± 0.065

Substance: LNQSKFGKVGTSSVFWLFYN
- amyloid nucleation score: -1.01 ± 0.31

Substance: SISRISPTQGIIGQTRFFYV
- amyloid nucleation score: -1.14 ± 0.76

Substance: SDTVYLIFFSLAYNYVKRVT
- amyloid nucleation score: -1.74 ± 0.41

Substance: HLESAWSRVSTDRCTNTWTV
- amyloid nucleation score: 0.506 ± 0.45

Substance: SVKILPVISTTPFGV
- amyloid nucleation score: -0.922 ± 0.39

Substance: RRVTRKVVGPRNYAYEKYFW
- amyloid nucleation score: 3.28 ± 0.06

Substance: TLFRSELFAV
- amyloid nucleation score: 0.495 ± 0.56

Substance: CWVRLIVGMTCYAFKGGSVV
- amyloid nucleation score: 0.426 ± 0.43

Substance: LKNYSGLMPVI
- amyloid nucleation score: 3.41 ± 0.068

Substance: YVCLFEFVMVCCDFTLFCKV
- amyloid nucleation score: 0.585 ± 0.8

Substance: VTYFNVYSYCKYSAKGRCAS
- amyloid nucleation score: 6.22 ± 0.081

Substance: SSIRKDNRGCAHGGLVVER
- amyloid nucleation score: 0.698 ± 0.44

Substance: GDYTYRG
- amyloid nucleation score: 0.773 ± 0.66

Substance: WFFYWMYRGYSINMIFEMLD
- amyloid nucleation score: -2.15 ± 0.49

Substance: ASLSAFWSLTIVRVLPDKQV
- amyloid nucleation score: 0.722 ± 0.43

Substance: LIFLSDFLLPPSSPARDPYL
- amyloid nucleation score: -0.719 ± 1.1

Substance: WLFDGGFSVKWPDRVSLARV
- amyloid nucleation score: -1.14 ± 1

Substance: LLFMWTWVVVIGRKYANNYF
- amyloid nucleation score: inactive

Substance: RGSRNNQVWGQSFFMPQWTA
- amyloid nucleation score: -0.405 ± 0.41

Substance: KEVCEKTMFMCSWVK
- amyloid nucleation score: -0.809 ± 1.1

Substance: GSQYRVWISS
- amyloid nucleation score: -0.214 ± 0.55

Substance: GYTVCRLGCRFVMSLWNILV
- amyloid nucleation score: -0.221 ± 1.1

Substance: GSDFQFRSSATVLSAVEFLL
- amyloid nucleation score: -0.227 ± 0.35

Substance: HQMRFPGSPMATVGSLRTCR
- amyloid nucleation score: -0.528 ± 0.42

Substance: ANWPR
- amyloid nucleation score: -0.391 ± 0.79

Substance: VTRSLLLCHFSTCCFSALTW
- amyloid nucleation score: -0.086 ± 0.32

Substance: KWNVFGDDGMREARLNLSGV
- amyloid nucleation score: -0.69 ± 0.74

Substance: FAMNSVSFSAGNFTDSVPWW
- amyloid nucleation score: -0.666 ± 0.63

Substance: WFGYIYFHTTYSFFGHPAAT
- amyloid nucleation score: -1.5 ± 1.1

Substance: NDWSHRSIFMMVCFWGVHSH
- amyloid nucleation score: inactive

Substance: TRFRRDESRTSEDLRPRNRR
- amyloid nucleation score: 1.26 ± 0.23

Substance: FCLVY
- amyloid nucleation score: 0.744 ± 0.19

Substance: HYYIHSFNMYPVGSRLVPYE
- amyloid nucleation score: -0.065 ± 0.42

Substance: GEYINAWSLNIV
- amyloid nucleation score: -0.683 ± 0.64

Substance: YWGGLCHLMSYRFTCIKYVG
- amyloid nucleation score: -0.698 ± 0.64
